Drawing on paper PMC3161980, this text covers fold stronger ELISA labeling than NKp46-Fc for one substance.

Values joined by “and” are separate entries in the source; they are usually repeats but may differ in a detail not shown here. Equal entries are not always repeated.

This test concerns the target plate-bound HA. Description: ELISA. For orientation: An ELISA detects its analyte on a solid surface through an enzyme-linked reagent.

Regarding “NKp30-Fc: long (canonical) ectodomain of NKp30 fused to the Fc portion of human IgG1 (from UniProt O14931 19-135) (Fc fusion)”, the fold stronger ELISA labeling than NKp46-Fc is 1.5 fold and 2 fold.
